Data as given in IntAct's records for PubMed 21633354.

B1: Condensin complex subunit 2 (Schizosaccharomyces pombe (strain ATCC 38366 / 972)), Q9Y7R3 (parent)
chain: MKRASLGGHAPVSLPSLNDDALEKKRAKENSRKQRELRRSSALHSITPRRESLNNSSPFNSSHQVPVLSNFEEWIKLATDNKINSTNTWNFALIDYFHDMSLLRDGEDINFQKASCTLDGCVKIYTSRIDSVATETGKLLSGLANDSKVLQQTEEGEDAENDDEDLQKKKERKRAQRSVKTLVKDFESIRAKKFELECSFDPLFKKMCADFDEDGAKGLLMNHLCVDQHGRIVFDSSDTVIKDLENKDVEAESQEAVVAAPIESHDTEMTNVHDNISRETLNGIYKCYFTDIDQLTICPSLQGFEFDSKGNLDVSLLKSLSDEVNMITTTSLVDNTMEKTDADAASLSSDSDGEEGHIVHALEEMAYDEENPYVDVVPKAMDESENPDFGVDTEVNMADGSTMNENYSIISTAAANGVYEYFDKSMKKNWAGPEHWRIQALRKNINNASTVFNSSNTAESSDNVSRSLSSTERKKRRELDNAIDFLQEVDVEALFTPATSSLKLPKSHWKRHNRCLLPDDYQYDSKRLLQLFLKPKMSVLPNADGEGQLQLNKALDDENDLDGIQPHGFDSDGSDNVDEGIPPYGFGDSDSPKQTPLLTPPSSSGFGDNLLLTARLAKPDMLNYAKRAKKVDVRVLKEKLWKCLDLENTIKENSINSHIEGSEMESEETNMPVKSFFSTVNQLEETYEKKELKDISTSFAFICVLHLANEHNLELTSNEDFSDVFIRPGPNLTTLEALENDV

Variants of: B1
Details: with h2a2_schpo hta2, P04910

Row | effect of a mutation on the interaction | Variant
1 | decreasing interaction | S5A;S41A;S52A

Variants of: B1
Details: with h2az_schpo pht1, P48003
Chain of h2az_schpo pht1, P48003 (P48003 whole entry): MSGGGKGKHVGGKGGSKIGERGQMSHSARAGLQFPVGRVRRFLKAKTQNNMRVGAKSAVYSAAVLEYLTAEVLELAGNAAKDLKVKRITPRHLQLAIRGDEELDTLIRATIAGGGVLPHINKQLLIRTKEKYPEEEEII

Row | effect of a mutation on the interaction | Variant
2 | decreasing interaction | S5A;S41A;S52A
